Measurements published in patent US20010010923A1, “MODIFIED CARBOXYPEPTIDASE” (priority 1997, published 2001).
Marks after values point to notes of the source that are not given here.

Tests used:
[1] = ratio of hydrolysis rates, background statement; cited from earlier work
[2] = Transpeptidation of Bz-G-A-R-A-R-A-OH (arginine at P1) with H-Leu-NH2, Table 1; assay type: biochemical; settings: [N] 375 mM H-Leu-NH2; 2mM substrate; pH 7.5; [E] 0.1 mg/mL
Protocol: The mutant carboxypeptidase enzvmes used in these studies were produced by site-directed mutagenesis, essentially following the procedures described in published PCT Patent Application No. WO 95/20039. In general, oligonucleotides synthesized to encode the amino acid substitution were used to produce the mutant enzymes.
Transamidation reactions were carried out generally as described in PCT Application WO 95/20039. In general, the method included dissolving the nucleophile (H-Leu-NH2, unless otherwise indicated) in 50 mM HEPES, 5 mM EDTA and adjusting the pH to 7.5, 5 μl of peptide substrate (8 mM Bz-G-A-R-A-R-A-OH, unless otherwise indicated, in methanol) was added to 190 μl nucleophile solution followed by 5 μl enzyme, […]
During the reaction, 20 μl aliquots were removed from the reaction mixture and added to 50 μl 1% trifluoroacetic acid to quench the reaction. The reactant composition was determined by HPLC using a Waters HPLC equipped with a C-18 Waters Novapac 4μ reverse phase column and various gradients of acetonitrile in 0.1% trifluoroacetic acid. The separation was monitored at 254 nm allowing the direct quantification of the products from the integrated peak areas. The composition of the reaction mixture was determined at least twvice during the reaction, the first when 20-50% (preferably 35%) of the substrate had been consumed in the reaction and the second time when 50-90% (preferably 80%) of the peptide substrate had been consumed.
The reaction products were collected and identified by amino acid analysis after acid hydrolysis using a Pharmacia Alpha Plus analyzer. Further identification was obtained by co-chromatography of authentic standard compounds.
The fraction of aminolysis (fa) was expressed as the ratio between the formed aminolysis product and the sum of all products formed. Unconsumed substrate was disregarded in the calculations.

[3] = Transpeptidation of Bz-G-A-R-A-R-X-OH at pH 7.5 at 50% substrate consumption, Table 4; assay type: biochemical; set-up: key to fa: fraction: aminolysis product / sum of all products formed; settings: for Pmax (peak product yield) / fa: 375 mM H-Leu-NH2
Procedure, shortened: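 Transamidation was performed by dissolving the H-Leu-NH2 nucleophile in 50 mM HEPES with 5 mM EDTA at pH 7.5, then adding the Bz-G-A-R-A-R-X-OH peptide substrate in methanol followed by enzyme. Aliquots were quenched in 1% trifluoroacetic acid and analysed by C-18 reverse-phase HPLC at 254 nm. The fraction of aminolysis was the aminolysis product divided by all products formed.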

[4] = Transpeptidation of FA-Ala-Xaa-OH with H-Gly-NH2, Table 2; assay type: biochemical; settings: 1.9 M H-Gly-NH2, pH 7.5, room temperature
Procedure, shortened: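 Enzyme reacted with 0.2 mM peptide substrate and nucleophile in 50 mM HEPES, 5 mM EDTA, pH 7.5; aliquots quenched in 1% TFA. Products quantified by reverse-phase HPLC at 254 nm at two conversion points (20-50% and 50-90% substrate consumed). Fraction of aminolysis = aminolysis product over all products, ignoring unconsumed substrate.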

[5] = Transpeptidation of FA-Ala-OBzl with H-Leu-NH2, Table 3; assay type: biochemical; settings: FA-Ala-OBzl 0.2 mM; H-Leu-NH2; pH 7.5
Procedure, shortened: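 Site-directed mutant enzymes were reacted with H-Leu-NH2 in 50 mM HEPES, 5 mM EDTA, pH 7.5, with acyl-donor substrate at 0.2 mM final. Products were quantified by C-18 RP-HPLC at 254 nm at about 35% and 80% substrate consumption. fa is aminolysis product over all products; famax is fa at nucleophile saturation, and KN(app) is the nucleophile concentration giving famax/2.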

B1: Wild type: wild type (native) carboxypeptidase Y (protein, UniProt P00729 112-532, looked up)
Carboxypeptidase Y: KIKDPKILGIDPNVTQYTGYLDVEDEDKHFFFWTFESRNDPAKDPVILWLNGGPGCSSLTGLFFELGPSSIGPDLKPIGNPYSWNSNATVIFLDQPVNVGFSYSGSSGVSNTVAAGKDVYNFLELFFDQFPEYVNKGQDFHIAGESYAGHYIPVFASEILSHKDRNFNLTSVLIGNGLTDPLTQYNYYEPMACGEGGEPSVLPSEECSAMEDSLERCLGLIESCYDSQSVWSCVPATIYCNNAQLAPYQRTGRNVYDIRKDCEGGNLCYPTLQDIDDYLNQDYVKEAVGAEVDHYESCNFDINRNFLFAGDWMKPYHTAVTDLLNQDLPILVYAGDKDFICNWLGNKAWTDVLPWKYDEEFASQKVRNWTASITDEVAGEVKSYKHFTYLRVFNGGHMVPFDVPENALSMVNEWIHGGFSL
[1]
  FA-Arg-Ala-OH hydrolyzed more slowly than FA-Leu-Ala-OH: about 500 times
[2]
  fa (fraction of aminolysis): 0.05
[3]; leaving group A
  Pmax (peak product yield): 0
[3]; leaving group A, 50% substrate consumption
  fa: <0.05
[3]; leaving group A, 50% substrate consumption, 375 mM H-Leu-NH2, 2 mM substrate, [E] 0.1 mg/mL
  t(min): ca. 110000 min
[3]; leaving group I
  Pmax (peak product yield): 0
[3]; leaving group I, 50% substrate consumption
  fa: <0.05
[3]; leaving group L
  Pmax (peak product yield): 0
[3]; leaving group L, 50% substrate consumption
  fa: <0.05
[3]; leaving group M
  Pmax (peak product yield): 0
[3]; leaving group M, 50% substrate consumption
  fa: <0.05
[3]; leaving group V
  Pmax (peak product yield): 0
[3]; leaving group V, 50% substrate consumption
  fa: <0.05
[4]; FA-Ala-Ala-OH 0.2 mM
  Fraction of aminolysis (fa), P1' Ala: 0.90
[4]; FA-Ala-Leu-OH 0.2 mM
  Fraction of aminolysis (fa), P1' Leu: 0.20
[4]; FA-Ala-Met-OH 0.2 mM
  Fraction of aminolysis (fa), P1' Met: 0.18
[4]; FA-Ala-Phe-OH 0.2 mM
  Fraction of aminolysis (fa), P1' Phe: 0.04
[4]; FA-Ala-Val-OH 0.2 mM
  Fraction of aminolysis (fa), P1' Val: 0.16
[5]
  fa: 0.95^a
